Results published in patent US20080299072A1.

Key:
CCR5, P51681 [1] = assay: competition SPA, displacement of 125I-MIP-1α from CCR5 CHO membranes; settings: remark: other sources report otherwise
CCR5, P51681 [2] = assay: competition SPA, displacement of 125I-MIP-1α from CCR5 CHO membranes (FIG. 2); settings: remark: other sources report otherwise

Sequence of CCR5, P51681 (P51681 whole entry): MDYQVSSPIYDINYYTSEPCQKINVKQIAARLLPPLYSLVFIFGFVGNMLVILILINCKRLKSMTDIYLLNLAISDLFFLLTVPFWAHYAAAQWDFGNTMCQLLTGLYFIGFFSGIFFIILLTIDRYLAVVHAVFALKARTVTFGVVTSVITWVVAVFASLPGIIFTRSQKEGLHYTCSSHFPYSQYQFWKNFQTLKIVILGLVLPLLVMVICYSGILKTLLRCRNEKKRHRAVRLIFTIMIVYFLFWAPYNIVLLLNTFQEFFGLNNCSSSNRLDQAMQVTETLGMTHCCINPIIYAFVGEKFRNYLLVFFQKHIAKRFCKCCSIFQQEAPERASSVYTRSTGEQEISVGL

Row | IC50 (CCR5, P51681 [1]) [nM] | IC50 (CCR5, P51681 [2]) [nM] | Binder
1 | 10.6 | 3.1 | PEG-2 kDa-RANTES, P13501 24-91 (ligand) {mPEG‑ButyrALD 2 kDa}-SPYSSDTTPCCFAYIARPLPRAHIKEYFYTSGKCSNPAVVFVTRKNRQVCANPEKKWVREYINSLEMS
2 | 1.6 | 1.3 | Mature wildtype (wt) human RANTES, P13501 24-91 (ligand) SPYSSDTTPCCFAYIARPLPRAHIKEYFYTSGKCSNPAVVFVTRKNRQVCANPEKKWVREYINSLEMS
3 | 2.8 | 2.2 | PEG-5 kDa-RANTES, P13501 24-91 (ligand) {mPEG‑ButyrALD 5 kDa}-SPYSSDTTPCCFAYIARPLPRAHIKEYFYTSGKCSNPAVVFVTRKNRQVCANPEKKWVREYINSLEMS
